According to US20190309300A1 (TECHNION RESEARCH AND DEVELOPMENT FOUNDATION, published 2019):
Blank lines part the entries; values can stand above or below the binder they belong to.

Biological target: T1, flag tagged full length HDAC4 (human, UniProt P56524 1-1084)
T1 construct: Full length, expressed in transfected cells and immunoprecipitated from lysate; also called Flag-HDAC4; pcDNA HDAC4-flag; not shown: Flag tag
Assay: co-immunoprecipitation, IP anti-Flag, blot anti-HA (FIG. 7B)
Description: Cultured cells were washed with ice-cold phosphate-buffered saline (PBS) buffer and lysed in buffer containing 50 mM Tris, pH 7.5, 150 mM NaCl, 1 mM EDTA, and 1% NP-40. 400 μg of protein was immunoprecipitated with anti-Flag (Sigma-Aldrich), or IgG antibodies (negative control) and protein A/G agarose beads (Santa Cruz Biotechnology, Inc.) as described previously [Kehat I, et al., Modulation of chromatin position and gene expression by HDAC4 interaction with nucleoporins. J Cell Biol 2011, 193, 21-29]. Beads were washed three times with buffer and suspended in 30 μl of Laemmli buffer. Proteins were separated on an SDS gel, blotted, and detected with primary antibody recognizing HA (Santa Cruz Biotechnology, Inc. sc-805) or flag (Sigma-Aldrich).

T1 sequence (P56524 whole entry): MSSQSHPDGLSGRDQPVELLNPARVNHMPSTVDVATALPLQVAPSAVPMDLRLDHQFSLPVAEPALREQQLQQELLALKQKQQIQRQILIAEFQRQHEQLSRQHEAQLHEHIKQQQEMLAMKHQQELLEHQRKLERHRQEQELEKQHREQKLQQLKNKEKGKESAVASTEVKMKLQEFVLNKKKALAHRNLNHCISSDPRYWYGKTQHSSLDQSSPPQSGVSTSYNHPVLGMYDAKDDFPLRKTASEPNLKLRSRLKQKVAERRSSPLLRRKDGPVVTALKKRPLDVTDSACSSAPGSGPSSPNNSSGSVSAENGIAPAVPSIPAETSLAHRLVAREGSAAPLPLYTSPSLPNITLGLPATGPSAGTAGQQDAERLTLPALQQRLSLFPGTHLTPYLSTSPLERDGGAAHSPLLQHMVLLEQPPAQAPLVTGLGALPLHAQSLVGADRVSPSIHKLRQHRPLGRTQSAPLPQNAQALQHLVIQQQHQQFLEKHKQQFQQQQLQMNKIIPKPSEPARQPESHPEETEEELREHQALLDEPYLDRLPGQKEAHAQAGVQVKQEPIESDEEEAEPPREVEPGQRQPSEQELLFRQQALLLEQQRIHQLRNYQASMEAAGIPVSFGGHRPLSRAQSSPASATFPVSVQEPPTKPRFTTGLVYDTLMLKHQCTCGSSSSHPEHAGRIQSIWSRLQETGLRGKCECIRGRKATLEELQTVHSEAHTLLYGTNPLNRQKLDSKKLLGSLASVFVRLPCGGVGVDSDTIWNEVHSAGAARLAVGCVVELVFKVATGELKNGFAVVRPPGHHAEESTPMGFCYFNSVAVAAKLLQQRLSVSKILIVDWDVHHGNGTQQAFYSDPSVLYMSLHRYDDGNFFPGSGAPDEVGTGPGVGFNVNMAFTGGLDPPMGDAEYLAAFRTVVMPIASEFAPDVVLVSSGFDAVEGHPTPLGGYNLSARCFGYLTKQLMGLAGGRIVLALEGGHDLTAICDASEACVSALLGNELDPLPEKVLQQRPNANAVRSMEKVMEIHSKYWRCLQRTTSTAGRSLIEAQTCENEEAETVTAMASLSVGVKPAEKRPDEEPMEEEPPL

binding result: no binding
B1: 3HA tagged ENIGMA fragment containing the PDZ domain and linker (other, mouse, UniProt Q3TJD7 1-279, looked up)
chain: MDSFKVVLEGPAPWGFRLQGGKDFNVPLSISRLTPGGKAAQAGVAVGDWVLNIDGENAGSLTHIEAQNKIRACGERLSLGLSRAQPVQSKPQKALTPPADPPRYTFAPSASLNKTARPFGAPPPTDSTLRQNGQLLRQPVPDASKQRLMEDTEDWRPRPGTGQSRSFRILAHLTGTEFMQDPDEEFMKKSSQVPRTEAPAPASTIPQESWPGPTTPSPTSRPPWAVDPAFAERYAPDKTSTVLTRHSQPATPTPLQNRTSIVQAAAGGGTGGGSNNGKT
notes: domain: PDZ domain and linker; not shown: 3HA tag

binding result: no binding
B2: 3HA tagged ENIGMA fragment containing the linker and first LIM domain (other, mouse, UniProt Q3TJD7 86-338, looked up)
chain: PVQSKPQKALTPPADPPRYTFAPSASLNKTARPFGAPPPTDSTLRQNGQLLRQPVPDASKQRLMEDTEDWRPRPGTGQSRSFRILAHLTGTEFMQDPDEEFMKKSSQVPRTEAPAPASTIPQESWPGPTTPSPTSRPPWAVDPAFAERYAPDKTSTVLTRHSQPATPTPLQNRTSIVQAAAGGGTGGGSNNGKTPVCHQCHKIIRGRYLVALGHAYHPEEFVCSQCGKVLEEGGFFEEKGAIFCPSCYDVRYA
notes: domain: linker and first LIM domain; not shown: 3HA tag
